Source: patent US20220135638A1 (Takeda / Millennium, published 2022)
Numbered stars: 1 amine (or outer) side, 2 acyl side, 3 side chain; on linkers, the order of the positions; unused ones are H or OH. Square brackets hold non-standard residues; d marks the D form. Primed or numbered codes have the meaning given here. Side chains are listed from the residue outwards. Ends that are not written are not given here. * marks the point of attachment. C20 diacid = O=C(O)CCCCCCCCCCCCCCCCCCC(=O)*; C18 diacid = O=C(O)CCCCCCCCCCCCCCCCC(=O)*; C16 diacid = O=C(O)CCCCCCCCCCCCCCC(=O)*; γGlu = O=C(O)[C@H](CCC(=O)[*:2])N[*:1]; Iva = CC[C@](C)(N)C(=O)O; PEG3′ = not defined here; AGlu = not defined here; Aib = CC(C)(N)C(=O)O

Assays:
Experiment in all cases: cell-based or functional assay
[1] = biological target: T1, human GLP-1R (Genebank Accession No. NM_002062) on hGLP-1R/CRE-luc/CHO-K1 cells (human), P43220
T1 chain: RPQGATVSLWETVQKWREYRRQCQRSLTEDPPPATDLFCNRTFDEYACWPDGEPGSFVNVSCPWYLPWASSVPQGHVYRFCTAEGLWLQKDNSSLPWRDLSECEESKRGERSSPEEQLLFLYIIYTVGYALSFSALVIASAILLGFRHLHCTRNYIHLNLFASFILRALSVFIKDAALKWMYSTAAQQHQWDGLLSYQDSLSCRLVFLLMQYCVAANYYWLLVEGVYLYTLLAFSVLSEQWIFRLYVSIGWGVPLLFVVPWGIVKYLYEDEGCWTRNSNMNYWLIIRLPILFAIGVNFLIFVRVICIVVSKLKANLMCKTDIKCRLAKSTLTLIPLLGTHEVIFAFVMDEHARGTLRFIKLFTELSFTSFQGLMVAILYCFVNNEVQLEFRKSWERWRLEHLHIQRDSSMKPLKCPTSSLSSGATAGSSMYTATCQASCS

[2] = biological target: T2, human GIPR (Genebank Accession No. U39231) on hGIPR/CRE-LUC/CHO-K1 cells (human), P48546
T2 chain: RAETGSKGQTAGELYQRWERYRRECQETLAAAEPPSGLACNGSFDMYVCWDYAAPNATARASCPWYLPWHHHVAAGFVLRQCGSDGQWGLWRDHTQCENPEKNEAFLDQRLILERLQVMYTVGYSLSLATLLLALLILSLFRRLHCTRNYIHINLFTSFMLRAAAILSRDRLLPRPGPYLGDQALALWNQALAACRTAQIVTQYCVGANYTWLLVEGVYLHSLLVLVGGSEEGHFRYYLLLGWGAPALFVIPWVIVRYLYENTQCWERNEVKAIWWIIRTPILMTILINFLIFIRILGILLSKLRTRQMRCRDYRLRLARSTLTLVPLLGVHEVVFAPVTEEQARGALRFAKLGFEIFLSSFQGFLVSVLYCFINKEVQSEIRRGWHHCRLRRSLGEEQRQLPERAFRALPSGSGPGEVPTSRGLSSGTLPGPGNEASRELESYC

[3] = biological target: T3, full-length human GLP-1R (GenBank NM_002062) with an N-terminal FLAG tag on HEK-293T cells (human), P43220
T3 chain: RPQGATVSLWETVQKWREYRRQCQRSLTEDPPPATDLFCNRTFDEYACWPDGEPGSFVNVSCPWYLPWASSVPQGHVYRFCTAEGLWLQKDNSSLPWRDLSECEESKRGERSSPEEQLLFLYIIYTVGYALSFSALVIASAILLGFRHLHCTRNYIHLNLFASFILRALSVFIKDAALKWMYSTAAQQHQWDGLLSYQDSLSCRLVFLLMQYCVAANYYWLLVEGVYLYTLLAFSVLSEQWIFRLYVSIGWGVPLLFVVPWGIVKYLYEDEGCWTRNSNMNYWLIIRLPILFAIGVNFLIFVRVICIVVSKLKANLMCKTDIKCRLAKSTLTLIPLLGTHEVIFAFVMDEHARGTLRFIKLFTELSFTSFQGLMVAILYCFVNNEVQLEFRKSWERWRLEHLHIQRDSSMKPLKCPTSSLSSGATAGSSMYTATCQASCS

[4] = biological target: T4, full-length human GIPR (GenBank NM_000164) with an N-terminal FLAG tag on HEK-293T cells (human), P48546
T4 chain: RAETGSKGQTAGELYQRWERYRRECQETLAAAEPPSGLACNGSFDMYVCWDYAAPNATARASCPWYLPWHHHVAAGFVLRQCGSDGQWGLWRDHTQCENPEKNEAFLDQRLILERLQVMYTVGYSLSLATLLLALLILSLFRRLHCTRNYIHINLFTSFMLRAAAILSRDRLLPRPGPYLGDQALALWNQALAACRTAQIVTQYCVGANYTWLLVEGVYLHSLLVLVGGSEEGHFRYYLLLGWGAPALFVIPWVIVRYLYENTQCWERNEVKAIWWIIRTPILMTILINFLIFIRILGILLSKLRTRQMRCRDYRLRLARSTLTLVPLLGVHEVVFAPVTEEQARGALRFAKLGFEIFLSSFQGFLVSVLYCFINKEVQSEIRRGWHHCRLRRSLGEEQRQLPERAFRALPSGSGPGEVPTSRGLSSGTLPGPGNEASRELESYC

[5] = biological target: human GLP-1R (Genebank Accession No. NM_002062) on hGLP-1R/CRE-luc/CHO-K1 cells (human, UniProt P43220 24-463)

B1: Compound No. 46 (peptide)
peptide: Y[Aib]EGTFISDYSIALDR[Aib]HQ[Aib]NFVNW[Iva]LAQRPSSGAPPPSK([PEG(2)-C16 diacid])
modifications: ends and bridges not checked
With B1 the hGLP-1R (Reporter gene assay)(EC50) [1] was > 1000 nM and the hGIPR (polyclonal) Reporter (EC50) [2] was 0.01 nM.

B2: Compound No 942 (peptide)
peptide: Y[Aib]EGTFISDYSIALDR[Aib]HQ[Aib]NFVNW[Iva]LAQRGGGGSK([PEG3′-PEG3′-γGlu-C18 diacid])
modifications: ends and bridges not checked
With B2 the GLP EC50 [3] was 4.3 nM and the GIP EC50(pM) [4] was 1.4 pM.

B3: Compound No 939 (peptide)
peptide: Y[Aib]EGTFISDYSIALDR[Aib]HQ[Aib]NFVNW[Iva]LAQRPSSGAPPPK([PEG3′-PEG3′-C16 diacid])R
modifications: ends and bridges not checked
Work on B3 yielded a GLP EC50 [3] of 1000 nM and a GIP EC50(pM) [4] of 0.6 pM.

B4: Compound No 943 (peptide)
peptide: Y[Aib]EGTFISDYSIALDR[Aib]HQ[Aib]NFVNW[Iva]LAQRGGGGSGGGGSK([PEG3′-PEG3′-γGlu-C18 diacid])
modifications: ends and bridges not checked
Work on B4 yielded a GLP EC50 [3] of 1.2 nM and a GIP EC50(pM) [4] of 1.5 pM.

B5: Compound No 899 (peptide)
peptide: Y[Aib]EGTFISDYSIALDR[Aib]HQ[Aib]NFVNW[Iva]LAQRPSK([PEG3′-PEG3′-C18 diacid])GAPPPSR
modifications: ends and bridges not checked
In the case of B5, the GLP EC50 [3] is reported as 144 nM and the GIP EC50(pM) [4] is reported as 0.7 pM.

B6: Compound No. 60 (peptide)
peptide: YXEGTFISDYSIALDRXHQXNFVNWXLAQRPSSGAPPPSX
modifications: MeTyr (N-methyltyrosine) at 1; Aib at 2, 17, 20; Iva at 26; Lys40(Oda-GlyGlyGlyGlyGly); synthesized on Sieber amide resin
In the case of B6, the “hGLP-1R (Reporter gene assay)(EC50)” value [5] is reported as > 1000 nM.

B7: Compound No. 21 (peptide)
peptide: Y[Aib]EGTFISDYSIALDR[Aib]HQ[Aib]NFVNW[Iva]LAQRPSSGAPPPSK([PEG3′-PEG3′-AGlu-C16 diacid])
modifications: ends and bridges not checked
For B7, the hGLP-1R (Reporter gene assay)(EC50) [1] was > 1000 nM and the hGIPR (polyclonal) Reporter (EC50) [2] was 0.01 nM.

B8: Compound No. 23 (peptide)
peptide: Y[Aib]EGTFISDYSIALDR[Aib]HQ[Aib]NFVNW[Iva]LAQRPSSGAPPPSK([PEG3′-PEG3′-AGlu-C20 diacid])
modifications: ends and bridges not checked
For B8, the hGLP-1R (Reporter gene assay)(EC50) [1] was > 1000 nM and the hGIPR (polyclonal) Reporter (EC50) [2] was 0.1 nM.

B9: Compound No. 22 (peptide)
peptide: Y[Aib]EGTFISDYSIALDR[Aib]HQ[Aib]NFVNW[Iva]LAQRPSSGAPPPSK([PEG3′-PEG3′-AGlu-C18 diacid])
modifications: ends and bridges not checked
With B9 the hGLP-1R (Reporter gene assay)(EC50) [1] was > 1000 nM and the hGIPR (polyclonal) Reporter (EC50) [2] was 0.05 nM.

B10: Compound No. 42 (peptide)
peptide: Y[Aib]EGTFISDYSIALDR[Aib]HQ[Aib]NFVNW[Iva]LAQRPSSGAPPPSK([PEG(2)-C18 diacid])
modifications: ends and bridges not checked
In the case of B10, the hGLP-1R (Reporter gene assay)(EC50) [1] is reported as > 1000 nM and the hGIPR (polyclonal) Reporter (EC50) [2] is reported as 0.03 nM.

B11: Compound No. 38 (peptide)
peptide: Y[Aib]EGTFISDYSIALDR[Aib]HQ[Aib]NFVNW[Iva]LAQRPSSGAPPPSK([PEG(2)-C20 diacid])
modifications: ends and bridges not checked
With B11 the hGLP-1R (Reporter gene assay)(EC50) [1] was > 1000 nM and the hGIPR (polyclonal) Reporter (EC50) [2] was 0.05 nM.

B12: Compound No 927 (peptide)
peptide: Y[Aib]EGTFISDYSIALDR[Aib]HQ[Aib]NFVNW[Iva]LAQRPSSGAPK([PEG3′-PEG3′-C16 diacid])PSR
modifications: ends and bridges not checked
B12 gave a GLP EC50 [3] of 436 nM and a GIP EC50(pM) [4] of 1.3 pM.

B13: Compound No 929 (peptide)
peptide: Y[Aib]EGTFISDYSIALDR[Aib]HQ[Aib]NFVNW[Iva]LAQRPSSGAPK([PEG3′-PEG3′-C20 diacid])PSR
modifications: ends and bridges not checked
B13 gave a GLP EC50 [3] of 46.8 nM and a GIP EC50(pM) [4] of 1.8 pM.

B14: Compound No 941 (peptide)
peptide: Y[Aib]EGTFISDYSIALDR[Aib]HQ[Aib]NFVNW[Iva]LAQRPSSGAPPPK([PEG3′-PEG3′-C20 diacid])R
modifications: ends and bridges not checked
Work on B14 yielded a GLP EC50 [3] of 1000 nM and a GIP EC50(pM) [4] of 0.4 pM.

B15: Compound No 900 (peptide)
peptide: Y[Aib]EGTFISDYSIALDR[Aib]HQ[Aib]NFVNW[Iva]LAQRPSK([PEG3′-PEG3′-C20 diacid])GAPPPSR
modifications: ends and bridges not checked
With B15 the GLP EC50 [3] was 219 nM and the GIP EC50(pM) [4] was 0.7 pM.

B16: Compound No. 20 (peptide)
peptide: Y[Aib]EGTVVSLYSI[Aib]LDKQAQ[Aib]EFVKWLLAQKK([PEG(2)-Pal])
modifications: ends and bridges not checked
In the case of B16, the hGLP-1R (Reporter gene assay)(EC50) [1] is reported as > 1000 nM and the hGIPR (polyclonal) Reporter (EC50) [2] is reported as 0.1 nM.

B17: Compound No 934 (peptide)
peptide: Y[Aib]EGTFISDYSIALDR[Aib]HQ[Aib]NFVNW[Iva]LAQRPSSGAPPK([PEG3′-PEG3′-C18 diacid])SR
modifications: ends and bridges not checked
Binder B17 has a GLP EC50 [3] of 436 nM and a GIP EC50(pM) [4] of 0.6 pM.

B18: Compound No 940 (peptide)
peptide: Y[Aib]EGTFISDYSIALDR[Aib]HQ[Aib]NFVNW[Iva]LAQRPSSGAPPPK([PEG3′-PEG3′-C18 diacid])R
modifications: ends and bridges not checked
B18 was tested, and the GLP EC50 [3] was 525 nM and the GIP EC50(pM) [4] was 0.7 pM.

B19: Compound No 928 (peptide)
peptide: Y[Aib]EGTFISDYSIALDR[Aib]HQ[Aib]NFVNW[Iva]LAQRPSSGAPK([PEG3′-PEG3′-C18 diacid])PSR
modifications: ends and bridges not checked
B19 gave a GLP EC50 [3] of 135 nM and a GIP EC50(pM) [4] of 1.6 pM.

B20: Compound No 933 (peptide)
peptide: Y[Aib]EGTFISDYSIALDR[Aib]HQ[Aib]NFVNW[Iva]LAQRPSSGAPPK([PEG3′-PEG3′-C16 diacid])SR
modifications: ends and bridges not checked
With B20 the GLP EC50 [3] was 97.7 nM and the GIP EC50(pM) [4] was 0.6 pM.

B21: Compound No 935 (peptide)
peptide: Y[Aib]EGTFISDYSIALDR[Aib]HQ[Aib]NFVNW[Iva]LAQRPSSGAPPK([PEG3′-PEG3′-C20 diacid])SR
modifications: ends and bridges not checked
B21 gave a GLP EC50 [3] of 1000 nM and a GIP EC50(pM) [4] of 1 pM.

B22: Compound No. 7 (peptide)
peptide: YXEGTVVSLYSIXLDKQAQXEFVKWLLKGGPSSGAPPPSX
modifications: Aib at 2, 13, 20; Lys40(Heda-Gly-Gly-Gly-Gly-); synthesized on Sieber amide resin
For B22, the “hGLP-1R (Reporter gene assay)(EC50)” value [5] was > 1000 nM.
